Patent US20210032299A1 (Eli Lilly, published 2021)
Starred links: 1 amine or outer side, 2 acyl side, 3 side chain; linkers in the order of their positions; H or OH if unused. Non-standard residues stand in square brackets, D forms with d. Groups on a side chain read outwards from the residue. No end group written: not given here. *: point of attachment. C20 diacid = O=C(O)CCCCCCCCCCCCCCCCCCC(=O)*; γGlu = O=C(O)[C@H](CCC(=O)[*:2])N[*:1]; 4Pal = N[C@@H](Cc1ccncc1)C(=O)O; αMeL = CC(C)C[C@](C)(N)C(=O)O; AEEA = NCCOCCOCC(=O)O; Aib = CC(C)(N)C(=O)O

T1: human glucose-dependent insulinotropic peptide receptor (human, UniProt P48546 22-466)
T1 sequence (looked up): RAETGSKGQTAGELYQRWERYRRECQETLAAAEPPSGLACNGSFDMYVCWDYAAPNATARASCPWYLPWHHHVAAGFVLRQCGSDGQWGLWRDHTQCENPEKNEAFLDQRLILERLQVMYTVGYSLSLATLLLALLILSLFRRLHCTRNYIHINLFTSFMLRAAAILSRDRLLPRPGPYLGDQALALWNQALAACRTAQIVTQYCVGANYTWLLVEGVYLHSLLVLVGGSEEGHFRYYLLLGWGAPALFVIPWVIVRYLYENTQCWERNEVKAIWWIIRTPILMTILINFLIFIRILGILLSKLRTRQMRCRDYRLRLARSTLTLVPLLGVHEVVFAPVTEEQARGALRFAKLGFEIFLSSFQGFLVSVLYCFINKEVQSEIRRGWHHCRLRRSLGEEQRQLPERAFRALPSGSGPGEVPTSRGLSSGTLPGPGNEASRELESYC

B1: Example 70 (peptide)
peptide: Y[Aib]EGTFISDYSI[αMeL]LDKK([AEEA-AEEA-γGlu-C20 diacid])HQ[Aib]DFVE[4Pal]LLATGPSSGAPPPS-NH2
modifications: N-terminus assumed
SMILES: CC[C@H](C)[C@H](NC(=O)[C@H](Cc1ccccc1)NC(=O)[C@@H](NC(=O)CNC(=O)[C@H](CCC(=O)O)NC(=O)C(C)(C)NC(=O)[C@@H](N)Cc1ccc(O)cc1)[C@@H](C)O)C(=O)N[C@@H](CO)C(=O)N[C@@H](CC(=O)O)C(=O)N[C@@H](Cc1ccc(O)cc1)C(=O)N[C@@H](CO)C(=O)N[C@H](C(=O)N[C@@](C)(CC(C)C)C(=O)N[C@@H](CC(C)C)C(=O)N[C@@H](CC(=O)O)C(=O)N[C@@H](CCCCN)C(=O)N[C@@H](CCCCNC(=O)COCCOCCNC(=O)COCCOCCNC(=O)CC[C@H](NC(=O)CCCCCCCCCCCCCCCCCCC(=O)O)C(=O)O)C(=O)N[C@@H](Cc1c[nH]cn1)C(=O)N[C@@H](CCC(N)=O)C(=O)NC(C)(C)C(=O)N[C@@H](CC(=O)O)C(=O)N[C@@H](Cc1ccccc1)C(=O)N[C@H](C(=O)N[C@@H](CCC(=O)O)C(=O)N[C@@H](Cc1ccncc1)C(=O)N[C@@H](CC(C)C)C(=O)N[C@@H](CC(C)C)C(=O)N[C@@H](C)C(=O)N[C@H](C(=O)NCC(=O)N1CCC[C@H]1C(=O)N[C@@H](CO)C(=O)N[C@@H](CO)C(=O)NCC(=O)N[C@@H](C)C(=O)N1CCC[C@H]1C(=O)N1CCC[C@H]1C(=O)N1CCC[C@H]1C(=O)N[C@@H](CO)C(N)=O)[C@@H](C)O)C(C)C)[C@@H](C)CC
B2: Example 71 (peptide)
peptide: Y[Aib]EGTFISDYSI[αMeL]LDKK([AEEA-AEEA-γGlu-C20 diacid])HQ[Aib]DFVEWLLETGPSSGAPPPS-NH2
modifications: N-terminus assumed
SMILES: CC[C@H](C)[C@H](NC(=O)[C@H](Cc1ccccc1)NC(=O)[C@@H](NC(=O)CNC(=O)[C@H](CCC(=O)O)NC(=O)C(C)(C)NC(=O)[C@@H](N)Cc1ccc(O)cc1)[C@@H](C)O)C(=O)N[C@@H](CO)C(=O)N[C@@H](CC(=O)O)C(=O)N[C@@H](Cc1ccc(O)cc1)C(=O)N[C@@H](CO)C(=O)N[C@H](C(=O)N[C@@](C)(CC(C)C)C(=O)N[C@@H](CC(C)C)C(=O)N[C@@H](CC(=O)O)C(=O)N[C@@H](CCCCN)C(=O)N[C@@H](CCCCNC(=O)COCCOCCNC(=O)COCCOCCNC(=O)CC[C@H](NC(=O)CCCCCCCCCCCCCCCCCCC(=O)O)C(=O)O)C(=O)N[C@@H](Cc1c[nH]cn1)C(=O)N[C@@H](CCC(N)=O)C(=O)NC(C)(C)C(=O)N[C@@H](CC(=O)O)C(=O)N[C@@H](Cc1ccccc1)C(=O)N[C@H](C(=O)N[C@@H](CCC(=O)O)C(=O)N[C@@H](Cc1c[nH]c2ccccc12)C(=O)N[C@@H](CC(C)C)C(=O)N[C@@H](CC(C)C)C(=O)N[C@@H](CCC(=O)O)C(=O)N[C@H](C(=O)NCC(=O)N1CCC[C@H]1C(=O)N[C@@H](CO)C(=O)N[C@@H](CO)C(=O)NCC(=O)N[C@@H](C)C(=O)N1CCC[C@H]1C(=O)N1CCC[C@H]1C(=O)N1CCC[C@H]1C(=O)N[C@@H](CO)C(N)=O)[C@@H](C)O)C(C)C)[C@@H](C)CC

Experiments:
Experiment in all cases: cell-based or functional assay
human glucagon receptor = human glucagon receptor (human, UniProt P47871 26-477)
Chain of human glucagon receptor (P47871 26-477): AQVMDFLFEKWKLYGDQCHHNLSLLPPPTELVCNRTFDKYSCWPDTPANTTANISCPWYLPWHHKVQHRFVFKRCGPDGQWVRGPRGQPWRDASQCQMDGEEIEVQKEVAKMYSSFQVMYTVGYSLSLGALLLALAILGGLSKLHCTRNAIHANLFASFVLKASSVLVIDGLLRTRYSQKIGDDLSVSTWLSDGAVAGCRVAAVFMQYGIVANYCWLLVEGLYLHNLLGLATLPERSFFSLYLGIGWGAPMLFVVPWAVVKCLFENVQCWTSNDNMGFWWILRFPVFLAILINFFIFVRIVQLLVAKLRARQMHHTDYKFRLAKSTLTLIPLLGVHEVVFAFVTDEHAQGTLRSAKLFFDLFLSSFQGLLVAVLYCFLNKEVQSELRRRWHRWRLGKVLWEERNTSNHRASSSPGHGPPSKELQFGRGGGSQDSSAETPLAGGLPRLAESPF

human GLP-1 receptor = human GLP-1 receptor (human, UniProt P43220 24-463)
[1] = target: T1, human glucose-dependent insulinotropic …

Row | Binder | hGcgR cAMP Rel EC50 (human glucagon receptor) [nM] | hGLP1R cAMP Rel EC50 (human GLP-1 receptor) [nM] | hGIPR cAMP Rel EC50 [1] [nM]
1 | B1 | 3560 | > 5000 | 0.0254
2 | B2 | 581 | > 5000 | 0.0721
